Results from the supplement of paper PMC10567573.
± gives the standard deviation.

Assay: protein stability index of a GFP-peptide fusion (GPS, HEK-293T) (PSI 1-6); higher = more stable
[1] = treatment: DMSO, c terminus: a fixed tail appended
[2] = treatment: MLN4924 1 uM, 8 h, c terminus: a fixed tail appended
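Note: 24-mer peptide tiles fused after GFP, lentivirally expressed, FACS-sorted into six equal bins by GFP/DsRed ratio, decoded by Illumina sequencing, PSI is the read-weighted mean bin number.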

Sequence | protein stability index [1] | protein stability index [2] | protein stability index (treatment: DMSO, c terminus: native) | protein stability index (treatment: MLN4924 1 uM, 8 h, c terminus: native)
YLRYVRRLDFFEKPDYEYLRTLFT [CSNK1G1] | 2.34 ± 0.48 | 2.24 ± 0.38 | – | –
LDADAAQRVVYLEGCGPPLRRWLR [TSPAN10] | 2.69 ± 0.2 | 2.99 ± 0.14 | – | –
VVGALPAEHQFSFMEKRNQWLVSQ [TRAF3IP2] | 2.36 ± 0.24 | 2.65 ± 0.26 | – | –
SVNDQCGFGVLRLDADAAQRVVYL [TSPAN10] | 2.32 ± 0.27 | 2.28 ± 0.23 | – | –
IIESFTELARIVLLRHRMNWLGRP [RAB40A] | 3.18 ± 0.72 | 2.79 ± 0.47 | – | –
RVLRGRPGAGSRRRGRMALCGQAA [FBXO33] | 4 ± 0.18 | 4.74 ± 0.22 | – | –
PGGITSHQLLGLFPSTSYNARLQA [TNXB] | 2.98 ± 0.084 | 3.02 ± 0.085 | – | –
DEEVVATAGDRLTEFRKGAQSLPG [IRX6] | 5.12 ± 0.2 | 5.19 ± 0.22 | – | –
YIPRRLEEAAMQKCLVTEAQTLLR [RSAD1] | 2.34 ± 0.23 | 2.63 ± 0.17 | – | –
AAGYIQCMHEVHTFVSTCQAIDAT [HES6] | 1.93 ± 0.6 | 2.12 ± 0.37 | – | –
SLAAFSVISVVSYLILALLSVTIS [RTN3] | 3.41 ± 0.21 | 2.8 ± 0.19 | – | –
HHAALNGHVEMVNLLLAKGANINA [ANKRD44] | 2.51 ± 0.4 | 2.89 ± 0.2 | – | –
TTSWGLLSLGALVALCWQLGLLFE [SCNN1D] | 2.11 ± 0.13 | 2.13 ± 0.37 | – | –
KLLVVDRTRRLGNMKNGANDVKHH [PRKX] | 3.23 ± 0.46 | 3.48 ± 0.15 | – | –
SSEDYRQLELVILQSEPHRAGVQW [KCNK9] | 2.41 ± 0.19 | 2.38 ± 0.29 | – | –
PGPMGPPGPPGPTGVPGSPGHIGP [EMID1] | 4.82 ± 0.4 | 5.18 ± 0.34 | – | –
GYNDYTINVWDVLKGSRVSILFGH [GNB5] | 2.28 ± 0.39 | 2.3 ± 0.37 | – | –
SFSNYRPFEPQALGLSPSWRLTGF [SEPHS2] | 1.95 ± 0.2 | 2.01 ± 0.42 | – | –
PKMLVDLLSQKKTISFLGCAIQMF [OR10K2] | 2.84 ± 0.58 | 2.93 ± 0.62 | – | –
LETLPEFRDEKDYPASTSQDSFEA [KCNA3] | 5.38 ± 0.37 | 5.41 ± 0.2 | – | –
NPPRAEFNYSVGFKDLNESLNALE [APBB1IP] | 3.48 ± 0.26 | 3.65 ± 0.21 | – | –
MPPKKQAQAGGSKKAEQKKKEKII [ZC3H15] | 4.63 ± 0.18 | 5.1 ± 0.39 | – | –

Sequence | protein stability index [1] | protein stability index [2] | protein stability index (treatment: DMSO, c terminus: native) | protein stability index (treatment: MLN4924 1 uM, 8 h, c terminus: native)
RTPSAFPQTPAAPPATLGEGSADT [EHMT1] | 5.3 ± 0.21 | 5.25 ± 0.12 | – | –
WTHDGIDINNNFPDLNTLLWEAED [CPXM2] | 3.44 ± 0.098 | 3.8 ± 0.45 | – | –
NKATNTDHLTTVLYLQLAICSSLQ [C8orf76] | 3.4 ± 0.44 | 3.21 ± 0.64 | – | –
RCLHMFLQDEIIDKSYTPSKIRHA [SNX3] | 2.05 ± 0.58 | 1.92 ± 0.52 | – | –
YQLADWCLHHICTNYNNVCRKFPR [RHOBTB2] | 2.25 ± 0.52 | 2.23 ± 0.14 | – | –
RIFTSNTHSSVVLQGFDQLRLEGL [KLHL13] | 2.42 ± 0.18 | 2.49 ± 0.27 | – | –
KGYTPLHAAASNGQINVVKHLLNL [ANKRD44] | 2.67 ± 0.21 | 2.69 ± 0.25 | – | –
RGAQGVILVYDIANRWSFDGIDRW [RAB40B] | 2.29 ± 0.65 | 2.19 ± 0.15 | – | –
LYFATLRNRPKSTVNTHYFSIDEE [CDC14A] | 2.11 ± 0.17 | 2.15 ± 0.32 | – | –
RECGLAAPRFSFNDPSGSEEADFL [IRX6] | 4.53 ± 0.21 | 4.34 ± 0.33 | – | –
KRKLDTILNLERDVEDLQRDKARL [NFE2L1] | 4.36 ± 0.25 | 4.46 ± 0.17 | – | –
LGNGLLRKKTLVPGPPGSSRPVKG [FKBP8] | 3.94 ± 0.12 | 4.05 ± 0.47 | – | –
CCSRYLCMGAMSLFLPCLLCYPPA [SPRY1] | 2.82 ± 0.47 | 2.58 ± 0.63 | – | –
SLLVLIEPVAAGSGIPEVKCYLNG [CLCN6] | 1.99 ± 0.92 | 2.44 ± 0.43 | – | –
IALYFVSKKFKNCFQSCLCCCCYQ [EDNRA] | 3.19 ± 1.1 | 2.13 ± 1.4 | – | –
ALVHDHQAYAHYLLATFPRRALAP [ANKRD9] | 2.22 ± 0.21 | 2.4 ± 0.19 | – | –
RKCPVHGKTMELFCQTDQTCICYL [TRIM29] | 2.94 ± 0.61 | 3.72 ± 0.59 | – | –
TLSEAYIQIWKRRDNDETNQQGA [USP39] | – | – | 2.52 ± 0.65 | 3.24 ± 0.42
KECPFRVNKVCGAACSSKRSPIID [SERPINB5] | 3.02 ± 0.2 | 3.12 ± 0.38 | – | –
KGLKKVVHETPAASKTVFFFFSSP [BTBD1] | 2.29 ± 0.54 | 2.29 ± 0.26 | – | –
SSDMMDSSSFSNLDLSEEDSDDPS [VDR] | 5.66 ± 0.25 | 5.63 ± 0.26 | – | –
SPEARDARSPSGPSGSLENGTKAD [TRIM29] | 5.36 ± 0.44 | 5.61 ± 0.18 | – | –
